The data set concerns the target NS3 helicase (NS3, with protease domain) (Hepatitis C virus (genotype ), UniProt Q9WMX2 1027-1657). The data set is described as follows: KMnO4 footprinting.

Chain of NS3 helicase (NS3, with protease domain) (Q9WMX2 1027-1657): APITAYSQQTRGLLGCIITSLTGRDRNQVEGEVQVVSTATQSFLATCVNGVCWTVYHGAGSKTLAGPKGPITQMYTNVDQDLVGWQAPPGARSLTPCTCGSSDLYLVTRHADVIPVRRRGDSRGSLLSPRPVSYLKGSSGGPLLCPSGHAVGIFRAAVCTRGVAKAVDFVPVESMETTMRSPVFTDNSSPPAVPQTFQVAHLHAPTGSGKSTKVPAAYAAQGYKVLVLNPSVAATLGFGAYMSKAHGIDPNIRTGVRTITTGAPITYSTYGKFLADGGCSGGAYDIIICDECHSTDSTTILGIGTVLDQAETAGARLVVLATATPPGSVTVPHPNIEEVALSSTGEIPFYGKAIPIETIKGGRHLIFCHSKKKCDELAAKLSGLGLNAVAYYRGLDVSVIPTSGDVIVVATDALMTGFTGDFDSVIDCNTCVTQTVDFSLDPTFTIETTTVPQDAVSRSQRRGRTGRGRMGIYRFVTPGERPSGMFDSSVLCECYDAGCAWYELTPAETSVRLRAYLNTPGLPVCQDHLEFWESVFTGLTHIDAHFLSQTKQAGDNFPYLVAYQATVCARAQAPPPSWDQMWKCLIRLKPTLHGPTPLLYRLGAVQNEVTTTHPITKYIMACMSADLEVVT

B1: 30mer blunt duplex (dsDNA)
DNA 1: GCTCTCTGTCTGTCTGTGTCTCTGTCTCTG
DNA 2: CAGAGACAGAGACACAGACAGACAGAGAGC
modifications: biotin (position not stated for this duplex)
In the case of B1, the binding result is recorded as “binds”.

For the origin of these results see PMC3554864.
